Results as given in US20250000976A1 (NATIONAL RESEARCH COUNCIL OF CANADA, published 2025).

T1: BCMA_B13x Gly6 (C8S)_Pro23 (human, UniProt Q02223)
T1 construct: limits and substitution as printed in the sample name
T1 yeast-displayed fusion (looked up): GQSSQNEYFDSLLHACIP

T2: hBCMA-ECD-FC5VHH (human, UniProt Q02223 1-54, biotinylated in vivo ; biotinylated in vivo on the tag of the carrier part, which is not in the letters)
T2 construct: Made in HEK-293 cells, monomeric SEC fraction; The methods say about 500 RU captured on an SA chip; the results say immobilised on a CM5 chip; also called hBCMA-FC5; human BCMA-ECD; not shown: FC5 VHH carrier, any linker, and the His and biotinylation tags
T2 sequence: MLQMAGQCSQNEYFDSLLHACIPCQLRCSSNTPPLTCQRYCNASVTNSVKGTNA

T3: BCMA_B9x Met1_Asp15 (human, UniProt Q02223)
T3 construct: limits given in the sample name
T3 yeast-displayed fusion (looked up): MLQMAGQCSQNEYFD

T4: human BCMA on target cells (Raji, Ramos, Jeko-1, RPMI8226) (human, UniProt Q02223 1-184)
T4 construct: also called TNFRSF17; BCMA-positive target cells
T4 sequence: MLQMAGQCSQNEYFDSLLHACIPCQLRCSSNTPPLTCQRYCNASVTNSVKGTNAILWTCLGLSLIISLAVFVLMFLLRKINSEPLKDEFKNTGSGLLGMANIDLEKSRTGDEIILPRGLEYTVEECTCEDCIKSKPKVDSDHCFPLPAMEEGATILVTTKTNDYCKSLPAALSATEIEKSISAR


Columns and labels:
[1] = target: T1, BCMA_B13x Gly6 (C8S)_Pro23; test: yeast cell ELISA, sample BCMA_B13x Gly6 (C8S)_Pro23
Protocol: (§1) The YSD vector (pPNL6) was from The Pacific Northwest National Laboratory, USA. […] The HRP activity was assayed with substrate TMB (tetramethyl benzidine) according to the manufacture's conditions and read at OD₄₅₀.
(§2) The assays were performed as described in the Materials and Method, and OD₄₅₀ was measured. Note that OD₄₅₀ reads equal or less than 0.100 were scored as zero for clarity.

hBCMA-ECD-FC5VHH [2] = target: T2, hBCMA-ECD-FC5VHH; test: SPR (Biacore T200), VHH 20-500 nM over BCMA-ECD surface, 25 C
Protocol: (§3) For surface Plasmon resonance, 15 selected VHHs were passed though size exclusion columns, Superdex 75 (GE Healthcare), respectively, in 10 mM HEPES, pH 7.4, containing 150 mM NaCl, 3 mM EDTA, monomeric sdAb fractions were collected and protein concentrations were determined by measuring absorbance at 280 nm (A280). Analysis were performed with Biacore T200 instrument (GE Healthcare). All measurements were carried out at 25° C. in 10 mM HEPES, pH 7.4, containing 150 mM NaCl, 3 mM EDTA and 0.005% surfactant P20 (GE Healthcare). Approximately 500 RUs of the recombinant monomeric BCMA-ECD (obtained after SEC purification of the BCMA-ECD-FC5VHH) were captured on SA sensor chip (GE Healthcare) at a flow rate of 5 uL/min. Various concentration of the monomeric VHHs (20-500 nM) were injected over BCMA-ECD surface, respectively using an SA surface as a reference at a flow rate of 40 μL/min. Surfaces were generated by washing with running buffer. Data were analysed with BIAevaluation 4.1 software.
(§4) The monomeric fraction of all 15 VHHs were used for SPR experiment where the human BCMA-ECD or mouse BCMA was immobilized onto the CM5 dextran chip and various VHH concentration (20-500 nM) were passed over the sensor chip.

BCMA_B9x Met1_Asp15 = target: T3, BCMA_B9x Met1_Asp15; test: yeast cell ELISA, sample BCMA_B9x Met1_Asp15
Protocol: as §1, §2

[3] = target: T4, human BCMA on target cells (Raji, …); test: flow cytometry on RPMI8226 cells (BCMA-high); VHH detected with AlexaFluor647 anti-VHH antibodies
Protocol: Purified VHH were used to assess the target specificity of the sdBCMA Ab by flow cytometry. The highly BCMA expressing human myeloma cell line RPM18226, the BCMA-low human Burkitt's lymphoma cell line Raji, and the BCMA-negative Jurkat human T cell leukemia cell line were incubated with 5 fold dilution of biotin labelled sdBCMA VHH from 7.5-0.06 μg/mL. The binding of the BCMA-targeted VHH to cell surface BCMA was detected by flow cytometry using a mixture of two broad reactivity mouse anti-VHH antibodies conjugated with AlexaFluor647.

hBCMA-ECD-FC5VHH [4] = target: T2, hBCMA-ECD-FC5VHH; test: SPR, 1:1 binding model
Protocol: as §3, §4

mBCMA-ECD-FC5VHH = target: T5, mBCMA-ECD-FC5VHH (mouse, UniProt O88472 1-49, biotinylated in vivo ; biotinylated in vivo on the tag of the carrier part, which is not in the letters); test: SPR (Biacore T200), VHH over mouse BCMA-ECD surface, 25 C
T5 construct: also called mouse BCMA; murine BCMA ECD; not shown: FC5 VHH carrier, any linker, and the His and biotinylation tags
T5 sequence (O88472 1-49 limits assumed): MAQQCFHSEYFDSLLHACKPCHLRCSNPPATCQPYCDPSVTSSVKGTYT

| Binder | binding result [1] | Kd (hBCMA-ECD-FC5VHH [2]) [nM] | koff (hBCMA-ECD-FC5VHH [2]) [s⁻¹] | kon (hBCMA-ECD-FC5VHH [2]) [M⁻¹ s⁻¹] | binding result (BCMA_B9x Met1_Asp15) | EC50 (read off the curve) [3] [nM] | Kd (hBCMA-ECD-FC5VHH [4]) [nM] | Kd (mBCMA-ECD-FC5VHH) [nM] | koff (mBCMA-ECD-FC5VHH) [s⁻¹] | kon (mBCMA-ECD-FC5VHH) [M⁻¹ s⁻¹] |
| --- | --- | --- | --- | --- | --- | --- | --- | --- | --- | --- |
| hBCMA-H4 (VHH, single biotin on the C-terminal AviTag, also called VHH-H4; not shown: C-terminal His tag and AviTag biotinylation signal from pMRO vector) VHH: QVQLVESGGGLVQPGGSLRLSCAASGDSFGAYAMGWYRQAPGKQRELVAAISSAGNTFYRDSVKGRFTVSRNNAKNAMYLQMDRLKPEDTAVYQCNGAPWADEPVKVWNWGLGTQVTVSS | no binding | 0.379 | 0.000509 | 1.34e+06 | no binding | – | – | – | – | – |
| hBCMA-VcMRo3 (V3) (VHH, single biotin on the C-terminal AviTag, also called hBCMA-V3; not shown: C-terminal His tag and AviTag biotinylation signal from pMRO vector) VHH: EVQLEQSGGGLVQTGDSLRLTCTIPGRASNHFVMAWFRRAPGKEREFVATRVWSGGSPYYSDSVKGRFAIAIDNAKNTAYLQMNSLKPEDTAVYYCAATKDIMSRSYDYWGLGTQVTVSS | – | 0.564 | 0.000239 | 424000 | no binding | ~2 | – | – | – | – |
| hBCMA-E7 (VHH, single biotin on the C-terminal AviTag, Llama VHH made in E. coli BL21(DE3), IMAC purified, monomeric SEC fraction used; also called VHH-E7; VHH # 1-B1; not shown: C-terminal His tag and AviTag biotinylation signal from pMRO vector) VHH: QVQLVESGGGLVQTGDSLRLACTISGRATDHFVMAWFRRAPGKEREYVATRVWSGGSPYYLDSVKGRFAIAIDNAKNTAYLQMNNLKPEDTAVYYCAATKDIMSRSYDYWGLGTQVTVSS | – | 0.0462 | 0.000179 | 3.88e+06 | no binding | ~0.9 | 0.0462 | 67.5 | 0.0514 | 762000 |
| hBCMA-A6 (VHH, single biotin on the C-terminal AviTag, also called VHH-A6; not shown: C-terminal His tag and AviTag biotinylation signal from pMRO vector) VHH: QVQLVESGGGLVQPGGSLRLSCVASGSIFDAYNMGWYRQAPGKQRELVAAISSAGTTFYRDSVKGRFTVSRNNAKNTMYLQMDRLRPEDTAVYDCNGAPWGDAPVKVEDWGQGTQVTVSS | no binding | 4.62 | 0.0109 | 2.36e+06 | no binding | – | 4 | – | – | – |

Other lines, results leading:

| binding result [1] | Kd (hBCMA-ECD-FC5VHH [2]) [nM] | koff (hBCMA-ECD-FC5VHH [2]) [s⁻¹] | kon (hBCMA-ECD-FC5VHH [2]) [M⁻¹ s⁻¹] | binding result (BCMA_B9x Met1_Asp15) | EC50 (read off the curve) [3] [nM] | Kd (hBCMA-ECD-FC5VHH [4]) [nM] | Kd (mBCMA-ECD-FC5VHH) [nM] | koff (mBCMA-ECD-FC5VHH) [s⁻¹] | kon (mBCMA-ECD-FC5VHH) [M⁻¹ s⁻¹] | Binder |
| --- | --- | --- | --- | --- | --- | --- | --- | --- | --- | --- |
| no binding | 0.0801 | 0.000343 | 4.28e+06 | no binding | – | – | – | – | – | hBCMA-H2 (VHH, single biotin on the C-terminal AviTag, also called VHH-H2; not shown: C-terminal His tag and AviTag biotinylation signal from pMRO vector) VHH: QVKAEESGGGLVRPGDSLRLTCTISGRTSNNFVMAWFRRTPGKEREYVATRVWSGSTPYYHDSVKGRFTISIDDDKNTAYLQMNSLKPEDTAVYYCAATKDIMSRSYDYWGLGTQVTVSS |
| no binding | 0.0846 | 0.00125 | 1.48e+07 | no binding | – | – | – | – | – | hBCMA-VcMRo8(VF7/VF8) (VHH, single biotin on the C-terminal AviTag, also called V8; hBCMA-V8; not shown: C-terminal His tag and AviTag biotinylation signal from pMRO vector) VHH: QVQLVESGGGLVQPGGSLRLSCAASGTIFSRNALAWFRQAPGKQRELVAHITIGGTTVYKDSVKGRFTISRDNAKNTVYLQMDALKPEDTAVYYCNADPEGSWNWVRRGDYWGQGTQVTVS |
